{"source": "patent US9115359B2", "about": "“Methods for producing secondary metabolites” (NewSouth Innovations Pty Limited, priority 2007, dated 2015)", "key": {"[1]": {"biological_target": "Bacillus brevis ATCC8185 NRPS peptidyl carrier protein involved in tyrocidine biosynthesis (TycPCP) (Bacillus brevis ATCC8185)"}, "[2]": {"biological_target": "truncated SACP, SACP3 (Synechocystis sp. PCC6803) (UniProt P20804)"}, "[3]": {"substrate": "CC(C)(COP(=O)(O)OP(=O)(O)OC[C@H]1O[C@@H](n2cnc3c(N)ncnc32)[C@H](O)[C@@H]1OP(=O)(O)O)[C@@H](O)C(=O)NCCC(=O)NCCS", "experiment": "Phosphopantetheinylation assay with HPLC analysis: kinetics of Sppt with respect to CoA, carrier protein SACP3 (truncated SACP)", "format": "biochemical, Synechocystis sp. PCC6803", "details": "other: Michaelis-Menten fit, 37° C.", "text": "Sppt and SACP were expressed and purified to determine the activity of Sppt via phosphopantetheinylation assays. Sppt was amplified by the primer pair SynPpF (5′-TGTTTAAACTCACCTG-3′) (SEQ ID NO: 9) and SynPpR (5′-CCCAAGGTTACGAAAC-3′) (SEQ ID NO: 10). The resulting PCR product was cloned into pGEM-T (Promega), digested with the restriction enzymes SacI and EcoRV and ligated into pET30 (Novagen, San Diego, Calif.). The Synechocystis sp. PCC6803 fatty acid synthesis (FAS) ACP, designated SACP (AcpP BA000022), was amplified by the primer pair ssl2084Efw (5′-[…]-3′) (SEQ ID NO: 11) and ssl12084 Hry (5′-[…]-3′) (SEQ ID NO: 12), digested with the restriction enzymes EcoRI and HindIII, and cloned into pET30. A truncated SACP, SACP3, was cloned and expressed for HPLC kinetic analysis using the primers 2084NdeF (5′-[…]-3′) (SEQ ID NO: 13) and 2083XhoR (5′-[…]-3′) (SEQ ID NO: 14).\nThe constructs were transformed into BL21(DE3) Rosetta (Novagen) for expression. Sppt was expressed at 37° C., with an induction concentration of 1 mM isopropyl-beta-D-thiogalactopyranoside (IPTG), for 3 hours. SACP and SACP3 were expressed at 37° C. with 1 mM IPTG for 20-40 min. Cultures were harvested at 5,000×g and cell pellets were stored at −80° C. Cell pellets were resuspended in Hepes buffer (Hepes 50 mM, NaCl 150 mM pH 7.4) and passaged three times through a cooled French pressure cell at […] (Paton Scientific, Victor Harbor, South Australia). […]\nThe protein concentrations were determined based on the calculated extinction coefficients: SACP 6,970 cm^−1M^−1, Sppt 53,110 cm^−1M^−1. […]\nSppt activity towards SACP was determined in a 10 min phosphopantetheinylation assay at 37° C. as previously described in Copp J. N., Roberts A. A., Marahiel M. A., Neilan B. A., 2007, Characterization of PPTNs, a cyanobacterial phosphopantetheinyl transferase from Nodularia spumigena NSOR10. […]\nThe CoA inhibition and pH activity range for Sppt was determined using in vitro phosphopantetheinylation assays with the truncated SACP3. […]"}, "TycPCP": {"system": "TycPCP", "experiment": "Sppt in vitro phosphopantetheinylation of non-cognate carrier proteins, ESI-MS", "format": "biochemical, Bacillus brevis ATCC8185", "details": "30 min reaction; estimated from holo- and apo-CP abundance in mass spectra", "protocol": "(§1) Sppt activity towards SACP was determined in a 10 min phosphopantetheinylation assay at 37° C. as previously described in Copp J. N., Roberts A. A., Marahiel M. A., Neilan B. A., 2007, Characterization of PPTNs, a cyanobacterial phosphopantetheinyl transferase from Nodularia spumigena NSOR10. J Bacteria 189(8):3133-9. Briefly, the 100-200 μl reactions comprised of 50 mM Tris-HCl pH 7.4, 12.5 mM MgCl2, 0.5 mM CoA, 2 μM DTT, 100 μM carrier protein and 300 nM Sppt. Reactions were incubated for 10 min at 37° C., terminated by the addition of 1 ml trichloroacetic acid and precipitated overnight at −20° C. before centrifugation for 15 min at 18,000×g. Samples were dissolved in water:acetonitrile:formic acid (50:49:1). Phosphopantetheinylation was observed by an increase in mass of 340 Da as visualised by electrospray ionisation mass spectrometry (ESI-MS). […]\n(§2) The ability of Sppt to activate carrier proteins from a range of secondary metabolism pathways was tested, including those from unicellular and filamentous, heterocyst-forming cyanobacteria. […] Protein concentrations were determined based on the calculated extinction coefficients: NpArCP 8,250 cm^−1M^−1, NpACP 13,940 cm^−1M^−1, MPCP 6,970 cm^−1M^−1 and TycPCP 9,530 cm^−1M^−1. Phosphopantetheinylation assays were carried out in 30 min reactions and analysed by ESI-mass spectrometry described in Example 4 above."}, "NpACP": {"system": "NpACP", "experiment": "Sppt in vitro phosphopantetheinylation of non-cognate carrier proteins, ESI-MS", "format": "biochemical, N. punctiforme ATCC29133", "details": "30 min reaction", "protocol": "as §1, §2"}, "NpArCP": {"system": "NpArCP", "experiment": "Sppt in vitro phosphopantetheinylation of non-cognate carrier proteins, ESI-MS", "format": "biochemical, N. punctiforme ATCC29133", "details": "30 min reaction", "protocol": "as §1, §2"}, "MPCP": {"system": "MPCP", "experiment": "Sppt in vitro phosphopantetheinylation of non-cognate carrier proteins, ESI-MS", "format": "biochemical, M. aeruginosa PCC7806", "details": "30 min reaction", "protocol": "as §1, §2"}}, "data": [{"molecule": "Synechocystis sp. PCC6803 phosphopantetheinyl transferase (Sppt) (from UniProt Q55185) (enzyme)", "values": [{"measurement": "phosphopantetheinylation of the carrier protein (30 min assay, ESI-MS; % holo-CP)", "setting": "[1]", "result": 54, "unit": "%"}, {"measurement": "kcat of phosphopantetheinylation of SACP3 (HPLC assay, CoA varied) (min^-1 (printed min^d))", "setting": "[2]", "result": 28.4}]}, {"molecule": "Synechocystis sp. PCC6803 phosphopantetheinyl transferase Sppt (slr0495, Swissprot accession number Q55185) (Synechocystis sp. PCC 6803 substr. Kazusa) (protein, carrier-protein substrate truncated SACP3) MAISAEFALCLNSPVLPQPQIWLCPTDRPLIPGYQALLSSEEMARGERYQRPQDKQRFLTMRLALRILLARQLDCLPQQLQFTYGPQGKPELVDRERRSPWFNVAHSGNYGLIGLSTEGEIGVDLQIMLPKPHYLKLAKRFFAPQEVQQLESLEGEKRTKLFYQLWTAKEAFLKATGKGISGGLNQVIPDENLAKYQYLPDSGDTNHWRLSSQPLLADQGSNDNYWMAIAWCTNEVNQVESNYLPNIQPFQWPRNLHSLPSFRYLGKGEFQHTGGRY", "values": [{"measurement": "Km", "setting": "[3]", "result": "169.17 ± 37.48", "unit": "µM"}, {"measurement": "kcat", "setting": "[3]", "result": 0.473, "unit": "s⁻¹"}, {"measurement": "kcat/Km", "setting": "[3]", "result": 2800, "unit": "M⁻¹ s⁻¹"}]}, {"molecule": "Sppt: Synechocystis sp. PCC6803 phosphopantetheinyl transferase (slr0495, Swissprot Q55185) (protein) MLPQPQIWLCPTDRPLIPGYQALLSSEEMARGERYQRPQDKQRFLTMRLALRILLARQLDCLPQQLQFTYGPQGKPELVDRERRSPWFNVAHSGNYGLIGLSTEGEIGVDLQIMLPKPHYLKLAKRFFAPQEVQQLESLEGEKRTKLFYQLWTAKEAFLKATGKGISGGLNQVIPDENLAKYQYLPDSGDTNHWRLSSQPLLADQGSNDNYWMAIAWCTNEVNQVESNYLPNIQPFQWPRNLDSLP", "values": [{"measurement": "TycPCP phosphopantetheinylated (% holo-CP)", "setting": "TycPCP", "result": "approximately 54%"}, {"measurement": "phosphopantetheinylation of NpACP", "setting": "NpACP", "result": "not reproducibly detected"}, {"measurement": "phosphopantetheinylation of NpArCP", "setting": "NpArCP", "result": "unable to phosphopantetheinylate"}, {"measurement": "phosphopantetheinylation of MPCP", "setting": "MPCP", "result": "small mass peak corresponding to the addition of a 340 Da phosphopantetheinyl moiety"}]}]}
